# Patent publication US20260184782A1 (TWIST BIOSCIENCE, published 2026)
# T1: human TIGIT-Fc (human, UniProt Q495A1 22-141, limits assumed)
# T1 construct: not shown: Fc; not described
# T1 sequence (looked up): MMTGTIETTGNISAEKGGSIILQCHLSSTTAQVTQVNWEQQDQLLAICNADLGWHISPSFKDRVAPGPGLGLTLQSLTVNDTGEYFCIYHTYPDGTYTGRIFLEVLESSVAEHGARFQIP
# T2: TIGIT on PBMCs (UniProt Q495A1 22-244, limits assumed)
# T2 sequence (looked up): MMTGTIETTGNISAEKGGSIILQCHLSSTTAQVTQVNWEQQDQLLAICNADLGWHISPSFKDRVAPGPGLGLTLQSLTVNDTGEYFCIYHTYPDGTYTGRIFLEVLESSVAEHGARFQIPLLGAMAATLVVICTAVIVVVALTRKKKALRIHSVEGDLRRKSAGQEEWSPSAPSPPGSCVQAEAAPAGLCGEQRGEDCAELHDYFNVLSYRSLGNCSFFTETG
# T3: TIGIT (UniProt Q495A1 22-141, limits assumed)
# T3 construct: also called T cell immunoreceptor with Ig and ITIM domains; hTIGIT
# T3 sequence (looked up): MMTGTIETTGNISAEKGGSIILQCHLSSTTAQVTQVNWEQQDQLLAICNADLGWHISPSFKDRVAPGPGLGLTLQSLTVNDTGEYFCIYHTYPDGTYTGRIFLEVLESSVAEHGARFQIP
# T4: TIGIT (UniProt Q495A1 22-141, limits assumed)
# T4 construct: construct not described; also called T cell immunoreceptor with Ig and ITIM domains
# T4 sequence (looked up): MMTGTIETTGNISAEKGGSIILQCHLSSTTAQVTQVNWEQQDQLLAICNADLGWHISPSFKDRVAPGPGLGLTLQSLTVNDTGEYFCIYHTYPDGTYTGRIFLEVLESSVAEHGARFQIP
# T5: TIGIT (T cell immunoreceptor with Ig and ITIM domains) (UniProt Q495A1 22-141, limits assumed)
# T5 sequence (looked up): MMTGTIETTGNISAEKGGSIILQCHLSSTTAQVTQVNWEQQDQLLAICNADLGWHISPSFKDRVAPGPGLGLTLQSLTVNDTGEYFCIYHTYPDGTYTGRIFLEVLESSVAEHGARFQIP
# What was measured:
# [1] = target: T1, human TIGIT-Fc; assay: CD155 competition ELISA, single point
# Protocol: (§1) TIGIT/CD155 inhibition of VHH-Fcs were assessed using an ELISA assay (Table 10B). Briefly, human TIGIT-Fc was coated on a plate & then incubated with VHH-Fcs and human CD155-biotin. Bound CD155-biotin was detected using a streptavidin-HRP conjugate visualized with TMB. Strong inhibitors from the single point screen were titrated to determine EC50 (Table 10C).
# [2] = target: T1, human TIGIT-Fc; assay: CD155 competition ELISA, titration
# Protocol: as §1
# [3] = target: T2, TIGIT on PBMCs; assay: cell-based or functional assay
# [4] = target: T3, TIGIT; assay: SPR (Carterra)
# [5] = target: T3, TIGIT; assay: TIGIT:CD155 blockade assay, competitor CD155
# [6] = target: T4, TIGIT; assay: Carterra SPR, VHH-Fc
# [7] = target: T5, TIGIT (T cell immunoreceptor with Ig …); assay: ELISA, VHH-Fc clone on TIGIT
# [8] = target: T5, TIGIT (T cell immunoreceptor with Ig …); assay: SPR (Carterra), VHH-Fc
# Text: The Carterra SPR system was used to assess binding affinity and affinity distribution for VHH-Fc variants. […] Table 5A provides specific values for the VHH-Fc clones for ELISA, Protein A (mg/ml), and KD (nM). FIG. 7A and FIG. 7B depict TIGIT affinity distribution for the VHH libraries, over the 20-4000 affinity threshold (FIG. 7A; monovalent KD) and the 20-1000 affinity threshold (FIG. 7B; monovalent KD).
binder,measurement,setting,value
"TIGIT-SC58 (Fc fusion, VHH-Fc) VHH: EVQLVESGGGLVQPGGSLRLSCAASGFTLGYYVMGWFRQAPGKEREFVATINWSGTLTSYADSVKGRFTISADNSKNTAYLQMNSLKPEDTAVYYCARWVGPKYYFDYWGQGTLVTVSS",OD (450 nm),[1],0.0846 OD
same,EC50,[2],0.000303 µM
same,T-cell activation EC50,[3],0.00208 µM
"Tiragolumab (antibody, V domains shown) VH: EVQLQQSGPGLVKPSQTLSLTCAISGDSVSSNSAAWNWIRQSPSRGLEWLGKTYYRFKWYSDYAVSVKGRITINPDTSKNQFSLQLNSVTPEDTAVFYCTRESTTYDLLAGPFDYWGQGTLVTVSS VL: not shown",OD (450 nm),[1],0.0858 OD
same,EC50,[2],0.00057 µM
same,T-cell activation EC50,[3],0.0135 µM
"TIGIT-471-011 (antibody, V domains shown, Variable domains only) VH: EVQLLESGGGLVQPGGSLRLSCAASGFTFSNYGVSWVRQAPGKGLEWVSSIDWHGWVTYYADSVKGRFTISRDNSKNTLYLQMNSLRAEDTAVYYCVKNALRFDYWGQGTLVTVSS VL: DIQMTQSPSSLSASVGDRVTITCSASQDINKYLNWYQQKPGKAPKLLIYHTSRLQSGVPSRFSGSGSGTDFTLTISSLQPEDFATYYCQQVVWRPFTFGQGTKVEIK",Kd,[4],7.29 µM
same,RU,[4],1080 RU
same,koff,[4],0.269 s⁻¹
same,kon,[4],36900 M⁻¹ s⁻¹
same,IC50,[5],0.0144 µM
"TIGIT-471-027 (antibody, V domains shown, Variable domains only) VH: EVQLLESGGGLVQPGGSLRLSCAASGFTFSNYGVSWVRQAPGKGLEWVSWISPHGALTYYADSVKGRFTISRDNSKNTLYLQMNSLKAEDTAVYYCAKGRRRFDYWGQGTLVTVSS VL: DIQMTQSPSSLSASVGDRVTITCRASQTISSYLNWYQQKPGKAPKLLIYENNNRPSGVPSRFSGSGSGTDFTLTISSLQPEDFATYYCQQSYIIPPTFGQGTNVEIK",Kd,[4],0.06 µM
same,RU,[4],57.5 RU
same,koff,[4],0.00926 s⁻¹
same,kon,[4],154000 M⁻¹ s⁻¹
same,IC50,[5],0.0135 µM
"TIGIT-SC41 (Fc fusion, VHH-Fc) VHH: EVQLVESGGGLVQPGGSLRLSCAASGMTTIGPMGWFRQAPGKEREFVASIAWGDGNTYYADSVKGRFTISADNSKNTAYLQMNSLKPEDTAVYYCVRGGSRTLWGQGTLVTVSS",OD (450 nm),[1],0.0921 OD
same,EC50,[2],0.01 µM
same,T-cell activation EC50,[3],0.00183 µM
"TIGIT-SC24 (Fc fusion, VHH-Fc) VHH: EVQLVESGGGLVQPGGSLRLSCAASGFTFDRSWMGWFRQAPGKEREVVASITSGGSTYYADSVKGRFTISADNSKNTAYLQMNSLKPEDTAVYYCAADVWYGSTWRNWGQGTLVTVSS",OD (450 nm),[1],0.0781 OD
same,EC50,[2],0.000423 µM
same,T-cell activation EC50,[3],0.00753 µM
"TIGIT-471-035 (antibody, V domains shown, Variable domains only) VH: EVQLLESGGGLVQPGGSLRLSCAASGFTFNAYPMTWVRQAPGKGLEWVSAITGSGGSTYYADSVKGRFTISRDNSKNTLYLQMNSLRAEDTAVYYCARVWRNHLDYWGQGTLVTVSS VL: DIQMTQSPSSLSASVGDRVTITCSGDKLGHTYTSWYQQKPGKAPKLLIYRASTLASGVPSRFSGSGSGTDFTLTISSLQPEDFATYYCQQGYTLPWTFGQGTKVEIK",Kd,[4],0.395 µM
same,RU,[4],93.7 RU
same,koff,[4],0.0484 s⁻¹
same,kon,[4],123000 M⁻¹ s⁻¹
same,IC50,[5],0.0032 µM
"TIGIT-SC63 (Fc fusion, VHH-Fc) VHH: EVQLVESGGGLVQPGGSLRLSCAASGRAIGSYGMGWFRQAPGKEREFVATISVSGVYTYYADSVKGRFTISADNSKNTAYLQMNSLKPEDTAVYYCARATPGGVVPWGQGTLVTVSS",OD (450 nm),[1],0.0781 OD
same,EC50,[2],0.135 µM
same,T-cell activation EC50,[3],0.0881 µM
"TIGIT-SC97 (Fc fusion, VHH-Fc) VHH: EVQLVESGGGLVQPGGSLRLSCAASGTAASFNPMGWFRQAPGKEREFVAAISWSGGSTNYADSVKGRFTISADNSKNTAYLQMNSLKPEDTAVYYCVTYSAYDFRNAWGQGTLVTVSS",OD (450 nm),[1],0.111 OD
same,EC50,[2],0.000971 µM
same,T-cell activation EC50,[3],0.00711 µM
"TIGIT-29-01 VHH-Fc (Fc fusion, also called 29-1) EVQLVESGGGLVQAGGSLRLSCAASGRTFSNYAMGWFRQAPGKEREFVAAITWSGTRTDYADSVKGRFTISADNAKNTVYLQMNSLKPEDTAVYYCAAAAWTIYEYDYWGQGTQVTVSSGGGGSEPKSSDKTHTCPPCPAPELLGGPSVFLFPPKPKDTLMISRTPEVTCVVVDVSHEDPEVKFNWYVDGVEVHNAKTKPREEQYNSTYRVVSVLTVLHQDWLNGKEYKCKVSNKALPAPIEKTISKAKGQPREPQVYTLPPSREEMTKNQVSLTCLVKGFYPSDIAVEWESNGQPENNYKTTPPVLDSDGSFFLYSLTVDKSRWQQGNVFSCSVMHEALHNHYTQKSLSLSPG",Kd,[6],0.068 µM
same,kon,[6],1e+09 M⁻¹ s⁻¹
"TIGIT-29-01 (Fc fusion, VHH-Fc; also called 29-1) EVQLVESGGGLVQAGGSLRLSCAASGRTFSNYAMGWFRQAPGKEREFVAAITWSGTRTDYADSVKGRFTISADNAKNTVYLQMNSLKPEDTAVYYCAAAAWTIYEYDYWGQGTQVTVSSGGGGSEPKSSDKTHTCPPCPAPELLGGPSVFLFPPKPKDTLMISRTPEVTCVVVDVSHEDPEVKFNWYVDGVEVHNAKTKPREEQYNSTYRVVSVLTVLHQDWLNGKEYKCKVSNKALPAPIEKTISKAKGQPREPQVYTLPPSREEMTKNQVSLTCLVKGFYPSDIAVEWESNGQPENNYKTTPPVLDSDGSFFLYSLTVDKSRWQQGNVFSCSVMHEALHNHYTQKSLSLSPG",ELISA,[7],10.4
same,Kd,[8],0.068 µM
